Seven sequences from the DeepSol protein solubility set can be followed below.

A short description of the series: soluble on expression in E. coli; label from the status in PepcDB or PDB records.
Turning to “MALNTNQLFAYLNRGDIAEFKFSPLFTTLFFPNVATFSTQNIMLDTLDIEEVTMSAFCSPMVGSQVQRDKGYETSTIKPGYMKPKHEIDPTKTIMRMAGEDPAQLNDPTYRRMRLITGNMRRQINAIKARVEWLAVNAVTTGKNIIEGEGIERYEIDWKIPEKNIIEQADGKKWSEQDKETHYPIYDIELYADQAGCPANVMIMGAEVWRTLRSFKKFRELYDLSRGSESAAELACKNLGEVVSFKGYLGDLALIVYSGKYTDSDGTEKYFLEPDLLVLGNTNNKGLVAYGAIMDQEAVRTGATQNMFYPKNWIEDGDPAIEYVQTHSAPQPVPADIRKFVTVKIA”, the “soluble on expression in E. coli” value is given as “not soluble”. For “MALSANSDAVTYAKAANTRTAAETGDRIEWVKLSLAFLPLATPVSDAKVLTGRQKPLTEVAIIIAEIRSRDGFEGVGFSYSKRAGGQGIYAHAKEIADNLLGEDPNDIDKIYTKLLWAGASVGRSGMAVQAISPIDIALWDMKAKRAGLPLAKLLGAHRDSVQCYNTSGGFLHTPLDQVLKNVVISRENGIGGIKLAVGQPNCAEDIRRLTAVREALGDEFPLMVDANQQWDRETAIRMGRKMEQFNLIWIEEPLDAYDIEGHAQLAAALDTPIATGEMLTSFREHEQLILGNASDFVQPDAPRVGGISPFLKIMDLAAKHGRKLAPHFAMEVHLHLSAAYPLEPWLEHFEWLNPLFNEQLELRDGRMWISDRHGLGFTLSEQARRWTQLTCEFGKRP” the value was “soluble”; for “MAMNLPADNEGKIKLAMSILVTIINDTGVPRNIRRAAANALTHLRDPRLSPAVRAANAISALEEVSQDPNMPFYARTRIWQVITILETVRD”, “not soluble”; for “MAMSFIKPIYQDINSILIGQKVKRPKSGTLSGHAAGEPFEKLVYKFLKENLSDLTFKQYEYLNDLFMKNPAIIGHEARYKLFNSPTLLFLLSRGKAATENWSIENLFEEKQNDTADILLVKDQFYELLDVKTRNISKSAQAPAIISAYKLAQTCAKMIDNKEFDLFDINYLEVDWELNGEDLVCVSTSFAELFKSEPSELYINWAAAMQIQFHVRDLDQGFNGTREEWAKSYLKHFVTQAEQRAISMIDKFVKPFKKYILRSRELVDPNSVQARLQDVDGTIDTRSKLAAAQLYTRASQPELAPEDPEDLEHHHHHH”, “soluble”. Regarding “MANAASGMAVHDDCKLRFLELKAKRTHRFIVYKIEEKQKQVVVEKVGQPIQTYEEFAACLPADECRYAIYDFDFVTAENCQKSKIFFIAWCPDIAKVRSKMIYASSKDRFKRELDGIQVELQATDPTEMDLDVFRSRAN”, the “soluble on expression in E. coli” value is “soluble”. Regarding “MANCQIAILYQRFQRVVFGISQLLCFSALISELTNQKEVAAWTYHYSTKAYSWNISRKYCQNRYTDLVAIQNKNEIDYLNKVLPYYSSYYWIGIRKNNKTWTWVGTKKALTNEAENWADNEPNNKRNNEDCVEIYIKSPSAPGKWNDEHCLKKKHALCYTASCQDMSCSKQGECLETIGNYTCSCYPGFYGPECEYVRECGELELPQHVLMNCSHPLGNFSFNSQCSFHCTDGYQVNGPSKLECLASGIWTNKPPQCLAAQCPPLKIPERGNMTCLHSAKAFQHQSSCSFSCEEGFALVGPEVVQCTASGVWTAPAPVCKAVQCQHLEAPNEGTMDCVHPLTAFAYGSSCKFECQPGYRVRGLDMLRCIDSGHWSAPLPTCEAISCEPLESPVHGSMDCSPSLRAFQYDTNCSFRCAEGFMLRGADIVRCDNLGQWTAPAPVCQALQCQDLPVPNEARVNCSHPFGAFRYQSVCSFTCNEGLLLVGASVLQCLATGNWNSVPPECQAIPCTPLLSPQNGTMTCVQPLGSSSYKSTCQFICDEGYSLSGPERLDCTRSGRWTDSPPMCEAIKCPELFAPEQGSLDCSDTRGEFNVGSTCHFSCNNGFKLEGPNNVECTTSGRWSATPPTCKGIASLPTPGVQCPALTTPGQGTMYCRHHPGTFGFNTTCYFGCNAGFTLIGDSTLSCRPSGQWTAVTPACRAVKCSELHVNKPIAMNCSNLWGNFSYGSICSFHCLEGQLLNGSAQTACQENGHWSTTVPTCQDDGKCPLNPHSHLGTYGVFTNAAFDPSP”, the “soluble on expression in E. coli” value is given as “soluble”.

With “MANFMSKEAPFWKVKKLEEMSLSEWESLCDGCGLCCLHKVEDDDTGDIYATSVACRLLDSETCRCRNYVHRKSIVPDCIFLNLATIKTVRWLPENCAYRLIYEGKDLYWWHPLVSGNYQTVHQTQFSARGQIEIYEDELSSEEDYLQYITGILCEGR”, the “soluble on expression in E. coli” value is given as “not soluble”.
